# Laboratory results: patent US20230017515A1 (JIANGSU ALPHAMAB BIOPHARMACEUTICALS, published 2023)
# Target: T1, human PD-L1 (WT) (human, UniProt Q9NZQ7 19-127, limits assumed)
# T1 construct: also called human PD-L1 N-terminal IgV domain
# Experiment: affinity measurement, method not stated
# T1 sequence (Q9NZQ7 19-127 limits assumed): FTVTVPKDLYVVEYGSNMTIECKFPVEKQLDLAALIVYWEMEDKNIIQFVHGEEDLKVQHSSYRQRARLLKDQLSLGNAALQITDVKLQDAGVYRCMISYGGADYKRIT
binder,measurement,value
"PD-L1 ISVD-9 (VHH, also called ISVD specific for PD-L1; aPDL1.9) VHH: QVQLVESGGGLVQPGGSLRLSCAASGKMSSRRCMAWFRQAPGKERERVAKLLTTSGSTYLADSVKGRFTISRDNSKNTVYLQMNSLRAEDTAVYYCAADSFEDPTCTLVTSSGAFQYWGQGTLVTVSS",Kd,5.92 nM
